This is an account of results in patent US20180095066A1 (OXFORD NANOPORE TECHNOLOGIES, published 2018).

The labels stand for the following.
B4: MspA-((Del-L74/G75/D118/L119)D56N/E59R/L88N/D90N/D91N/Q126R/D134R/E139K) monomer (other)
chain: GLDNELSLVDGQDRTLTVQQWDTFLNGVFPLDRNRLTREWFHSGRAKYIVAGPGANEFRGTLELGYQIGFPWSVGINFSYTTPNININNGDITAPPFGLNSVITPNLFPGVSISAGNGPGIREVATFSVRVSGAKGGVAVSNAHGTVTGAAGGVLLRPFARLIASTGDSVTTYGEPWNMN
notes: Pore-forming monomer; Seven copies in MspA 1 (7:1), eight in the homo-oligomer MspA 6; also called untagged monomer of MspA 1; monomer of MspA 6
B6: MspA-(G75S/G77S/L88N/D90N/D91N/D93N/D118R/Q126R/D134R/E139K) monomer (other)
chain: GLDNELSLVDGQDRTLTVQQWDTFLNGVFPLDRNRLTREWFHSGRAKYIVAGPGADEFEGTLELGYQIGFPWSLSVSINFSYTTPNININNGNITAPPFGLNSVITPNLFPGVSISARLGNGPGIREVATFSVRVSGAKGGVAVSNAHGTVTGAAGGVLLRPFARLIASTGDSVTTYGEPWNMN
notes: Made by coupled in vitro transcription and translation (35S-methionine) with rabbit red blood cell membranes; eight copies in the homo-oligomer; also called untagged monomer; untagged version

Data set [1] addresses B6. The data set is described as follows: IVTT of mixed DNA (2:1 untagged:tagged) with rRBCM, 7.5% Tris HCl gel, autoradiography.
Data set [2] deals with B4. The data set is described as follows: co-expression in E. coli, His column, gel filtration, gel; 7:1 hetero-oligomer.
Data set [3] addresses T1, MspA-((Del-L74/G75/D118/L119)D56N/E59R/L88N/D90N/D91N/N108P/Q126R/D134R/E139K) monomer (Mycobacterium smegmatis, UniProt A0QR29 28-211).
T1 construct: Seven copies in each of the 7:1 pores MspA 2, MspA 3 and MspA 7; also called untagged monomer of MspA 2, MspA 3 and MspA 7
T1 chain: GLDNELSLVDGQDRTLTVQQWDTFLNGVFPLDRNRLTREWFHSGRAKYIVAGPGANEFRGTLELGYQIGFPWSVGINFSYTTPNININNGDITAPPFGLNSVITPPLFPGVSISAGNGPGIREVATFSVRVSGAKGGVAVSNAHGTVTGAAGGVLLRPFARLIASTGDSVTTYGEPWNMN
The data set is described as follows: co-expression under 14 induction conditions, NiNTA batch purification, 10% TGX gel.

Data set [4] concerns the molecule itself. The data set is described as follows: 10% TGX gel, coomassie; homo-octamer, broken into monomers at 100 C in 50% DMSO.
Data set [5] concerns the molecule itself. The data set is described as follows: IVTT with rRBCM, 5% Tris HCl gel, autoradiography; homo-oligomerisation.
Data set [6] concerns the molecule itself. The data set can be described thus: IVTT with rRBCM, 7.5% Tris HCl gel, autoradiography.

B1: MspA-(G75S/G77S/L88N/D90N/D91N/D93N/D118R/Q126R/D134R/E139K/BasTL) monomer (other)
chain: GLDNELSLVDGQDRTLTVQQWDTFLNGVFPLDRNRLTREWFHSGRAKYIVAGPGADEFEGTLELGYQIGFPWSLSVSINFSYTTPNININNGNITAPPFGLNSVITPNLFPGVSISARLGNGPGIREVATFSVRVSGAKGGVAVSNAHGTVTGAAGGVLLRPFARLIASTGDSVTTYGEPWNMNDNQKALEEQMNSINSVNDKLNKGKGKLSLSMNGNQLKATSSNAGYGISYEDKNWGIFVNGEKVYTFNEKSTVGNISNDINKLNIKGPYIEIKKI
notes: also called monomer tagged with full length BasTL
Consider B1, for which the binding result in data set [1] was “binds”.

B2: MspA-((Del-L74/G75/D118/L119)D56N/E59R/L88N/D91N/Q126R/D134R/E139K/BasTL/H6) monomer (other)
chain: GLDNELSLVDGQDRTLTVQQWDTFLNGVFPLDRNRLTREWFHSGRAKYIVAGPGANEFRGTLELGYQIGFPWSVGINFSYTTPNINIDNGDITAPPFGLNSVITPNLFPGVSISAGNGPGIREVATFSVRVSGAKGGVAVSNAHGTVTGAAGGVLLRPFARLIASTGDSVTTYGEPWNMNDNQKALEEQMNSINSVNDKLNKGKGKLSLSMNGNQLKATSSNAGYGISYEDKNWGIFVNGEKVYTFNEKSTVGNISNDINKLNIKGPYIEIKKIHHHHHH
notes: also called tagged monomer of MspA 1
B2: the binding result in data set [2] is on record as “binds”.

B3: MspA-((Del-L74/G75/D118/L119)D56N/E59R/L88N/D91N/N108P/Q126R/D134R/E139K/BasTL/H6) monomer (other)
chain: GLDNELSLVDGQDRTLTVQQWDTFLNGVFPLDRNRLTREWFHSGRAKYIVAGPGANEFRGTLELGYQIGFPWSVGINFSYTTPNINIDNGDITAPPFGLNSVITPPLFPGVSISAGNGPGIREVATFSVRVSGAKGGVAVSNAHGTVTGAAGGVLLRPFARLIASTGDSVTTYGEPWNMNDNQKALEEQMNSINSVNDKLNKGKGKLSLSMNGNQLKATSSNAGYGISYEDKNWGIFVNGEKVYTFNEKSTVGNISNDINKLNIKGPYIEIKKIHHHHHH
notes: One copy in MspA 2 (7:1); also called tagged monomer of MspA 2; monomer unit with the BasTL-H6 attached
Take B3: in data set [3], the binding result is listed as “binds”.

Turning to B4, the binding result in data set [4] is “binds”.

B5: MspA-(G75S/G77S/L88N/D90N/D91N/D93N/D118R/Q126R/D134R/E139K/D10H6) monomer (other)
chain: GLDNELSLVDGQDRTLTVQQWDTFLNGVFPLDRNRLTREWFHSGRAKYIVAGPGADEFEGTLELGYQIGFPWSLSVSINFSYTTPNININNGNITAPPFGLNSVITPNLFPGVSISARLGNGPGIREVATFSVRVSGAKGGVAVSNAHGTVTGAAGGVLLRPFARLIASTGDSVTTYGEPWNMNDDDDDDDDDDHHHHHH
notes: also called D10H6 tagged monomer
With B5, the binding result in data set [5] is given as “no binding”.

For the molecule B6, the binding result in data set [6] was “binds”.
